Results taken from patent publication USRE38313.

Tests used:
[1] = target: human MHC Class II molecules expressed on cells (human); test: flow cytometry on Daudi cells, GAH-FITC detection, no preincubation
[2] = target: human MHC Class II molecules expressed on cells (human); test: competition by flow cytometry on Daudi cells; soluble CHO/LAG-3D1D2 first, then dimeric LAG-3D1D4Ig
[3] = target: human MHC Class II molecules expressed on cells (human); test: competition by flow cytometry on Daudi cells; soluble CHO/LAG-3D1D2 first, then monomeric LAG-3D1D2Ig
[4] = target: human MHC Class II molecules expressed on cells (human); test: cell-based or functional assay
[5] = target: human MHC Class II molecules expressed on cells (human); test: flow cytometry on Daudi cells preincubated with the competitor soluble CHO/LAG-3D1D2, GAH-FITC detection

Mean Fluorescence [1] | percent inhibition of the binding of dimeric LAG-3D1D4Ig [2] | percent inhibition of the binding of monomeric LAG-3D1D2Ig [3] | inhibition of the proliferation of clone T154 preincubated with cross-linked LAG-3Ig [4] | Mean Fluorescence [5] | Substance
62.5 | – | – | – | – | LAG-3 D1D2 Ig (from UniProt P01857 99-330) (Fc fusion)
– | 58% | 27% | – | – | soluble LAG-3 D1D2 fragment produced by CHO cells (receptor)
20.8 | – | – | > 50% | 8.5 | LAG-3 D1-D4 Ig (from UniProt P01857 99-330) (Fc fusion)
